From patent US20150290289, “METHOD OF PROMOTING WOUND HEALING” (Agency for Science, Technology and Research, published 2015)

T1: KSRP (KHSRP) (UniProt Q92945 Q92945:2-711)
T1 sequence: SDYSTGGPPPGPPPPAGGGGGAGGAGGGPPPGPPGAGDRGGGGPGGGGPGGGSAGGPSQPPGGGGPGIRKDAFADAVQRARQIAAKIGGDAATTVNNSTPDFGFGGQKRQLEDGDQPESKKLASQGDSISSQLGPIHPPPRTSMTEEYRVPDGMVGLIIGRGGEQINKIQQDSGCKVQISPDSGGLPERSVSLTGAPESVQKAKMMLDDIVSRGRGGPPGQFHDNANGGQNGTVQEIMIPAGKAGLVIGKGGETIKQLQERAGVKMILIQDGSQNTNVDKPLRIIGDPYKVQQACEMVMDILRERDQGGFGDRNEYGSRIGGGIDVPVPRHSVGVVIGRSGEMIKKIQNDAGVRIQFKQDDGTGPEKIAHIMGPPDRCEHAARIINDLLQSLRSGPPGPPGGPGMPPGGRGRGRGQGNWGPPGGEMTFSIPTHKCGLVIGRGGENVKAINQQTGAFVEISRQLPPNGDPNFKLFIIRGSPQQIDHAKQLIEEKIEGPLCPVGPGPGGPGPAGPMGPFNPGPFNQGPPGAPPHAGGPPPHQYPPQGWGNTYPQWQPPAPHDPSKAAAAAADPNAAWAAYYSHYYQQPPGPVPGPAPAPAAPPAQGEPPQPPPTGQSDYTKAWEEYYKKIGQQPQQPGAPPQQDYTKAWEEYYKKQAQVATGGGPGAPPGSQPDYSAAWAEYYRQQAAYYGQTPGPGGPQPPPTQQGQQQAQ


What was measured:
KSRP (KHSRP) [1] = biological target: T1, KSRP (KHSRP); experiment: EMSA; 0.5 uM KSRP, 5 mM MgCl2, 50 mM KCl, yeast tRNA, pH 7.4, room temperature; settings: tags: recombinant, Origene; label: 32P-UTP; hairpin
Description: (§1) The pre-miR-198 substrate for gel retardation assay was prepared as described above. Pre-miR-198 transcripts with mutated terminal loop and stem sequences (FIG. 11B) were generated by mutating the parental plasmid (pBSKS) constructs with Quickchange site directed mutagenesis Kit (Stratagene). Recombinant KSRP protein (0.5 μM) was incubated with the wild type or mutant pre-miR-198 transcripts in 20 μl of reaction buffer containing 30 mM Tris HCl, pH 7.4, 5 mM MgCl₂, 50 mM KCl, 0.5 mM DTT, 40 u/ml of RNaseOUT, 250 μg/ml of yeast tRNA and 10% glycerol. After 30 min at room temperature, reaction products were resolved through 6% native polyacrylamide gel electrophoresis. Gel was dried and the protein RNA complex and unbound RNA were visualized by phosphorimaging.

KSRP (KHSRP) [2] = biological target: T1, KSRP (KHSRP); experiment: EMSA; binding abrogated; 0.5 uM KSRP; settings: tags: recombinant, Origene; label: 32P-UTP; hairpin
Description: as §1

Row | Binder | binding result (KSRP (KHSRP) [1]) | binding result (KSRP (KHSRP) [2])
1 | pre-miR-198 wild type (ssRNA) RNA: UCAUUGGUCCAGAGGGGAGAUAGGUUCCUGUGAUUUUUCCUUCUUCUCUAUAGAAUAAAUGA | binds | 
2 | pre-miR-198 Mut-1 (ssRNA, [NONE]) RNA: UCAUUGGUCCAGAGGGGAGAUAGGUUCCUCUCAUUUUUCCUUCUUCUCUAUAGAAUAAAUGA |  | no binding
